Source: PMC7049810, “Outer membrane lipoprotein NlpI scaffolds peptidoglycan hydrolases within multi‐enzyme complexes in Escherichia coli” (The EMBO Journal, 2020)

Key:
[1] = biological target: the molecule itself; experiment: AUC; sedimentation velocity, 45,000 rpm, 20°C, 25 mM HEPES/NaOH, 150 mM NaCl, pH 7.5; NlpI 0.3-1.2 mg/ml; c(s) model
PBP7, purified = biological target: T1, PBP7, purified (Escherichia coli, UniProt P0AFI5 26-310, where used as the labelled protein in MST: NT647 RED-NHS dye on amines); experiment: pull-down; Ni2+-NTA agarose beads; His-tagged protein with untagged or native ligand, overnight at 4°C; 10 mM HEPES/NaOH, 10 mM MgCl2, 150 mM NaCl, 0.05% Triton X-100, pH 7.5; washes with 30 mM imidazole; SDS-PAGE; details: both partners purified
T1 construct: PBP7 (DD-endopeptidase) of E. coli; source: E. coli BL21 (λDE3), purified (HisTrap HP, Superdex 200)
T1 sequence (looked up): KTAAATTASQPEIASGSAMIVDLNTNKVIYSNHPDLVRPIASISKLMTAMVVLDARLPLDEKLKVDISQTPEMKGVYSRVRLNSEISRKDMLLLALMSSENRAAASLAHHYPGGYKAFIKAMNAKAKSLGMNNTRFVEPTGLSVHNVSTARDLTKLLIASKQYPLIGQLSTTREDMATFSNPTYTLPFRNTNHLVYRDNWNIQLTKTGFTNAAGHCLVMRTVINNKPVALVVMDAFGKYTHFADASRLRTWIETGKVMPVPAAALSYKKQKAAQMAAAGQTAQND

MepM = biological target: T2, MepM (Escherichia coli, UniProt P0AFS9 41-440); experiment: MST; titration: NT647-labelled protein against a two-fold serial dilution (16 steps) of unlabelled ligand; 25 mM HEPES/NaOH, 150 mM NaCl, 0.05% Triton X-100, pH 7.5; Monolith NT.115; apparent constants; for NlpI with itself: dimer to monomers; details: both partners purified
T2 construct: Peptidoglycan endopeptidase MepM of E. coli; source: purified as previously described in Moré et al (2019)
T2 sequence (looked up): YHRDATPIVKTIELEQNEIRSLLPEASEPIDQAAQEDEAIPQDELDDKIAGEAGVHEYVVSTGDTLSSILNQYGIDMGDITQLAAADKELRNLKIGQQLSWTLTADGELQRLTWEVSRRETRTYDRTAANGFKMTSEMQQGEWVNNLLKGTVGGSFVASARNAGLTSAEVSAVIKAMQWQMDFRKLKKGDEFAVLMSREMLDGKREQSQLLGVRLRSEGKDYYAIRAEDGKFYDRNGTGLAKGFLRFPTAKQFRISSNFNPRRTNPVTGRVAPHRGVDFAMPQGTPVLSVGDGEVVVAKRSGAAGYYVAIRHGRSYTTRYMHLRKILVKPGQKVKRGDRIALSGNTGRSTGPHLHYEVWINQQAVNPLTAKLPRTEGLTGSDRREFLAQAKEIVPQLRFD

PBP4, native, purified = biological target: T3, PBP4, native, purified (Escherichia coli, UniProt P24228 21-477, where used as the labelled protein in MST: NT647 RED-NHS dye on amines); experiment: as above; details: both partners purified
T3 construct: PBP4 (DD-endopeptidase) of E. coli, 'native PBP4' purified after Kishida et al (2006); Untagged ('native'); source: E. coli BL21 (λDE3), purified (HiTrap Q, hydroxyapatite, Superdex 200)

[2] = biological target: the molecule itself; experiment: as above

T3 sequence (P24228 21-477): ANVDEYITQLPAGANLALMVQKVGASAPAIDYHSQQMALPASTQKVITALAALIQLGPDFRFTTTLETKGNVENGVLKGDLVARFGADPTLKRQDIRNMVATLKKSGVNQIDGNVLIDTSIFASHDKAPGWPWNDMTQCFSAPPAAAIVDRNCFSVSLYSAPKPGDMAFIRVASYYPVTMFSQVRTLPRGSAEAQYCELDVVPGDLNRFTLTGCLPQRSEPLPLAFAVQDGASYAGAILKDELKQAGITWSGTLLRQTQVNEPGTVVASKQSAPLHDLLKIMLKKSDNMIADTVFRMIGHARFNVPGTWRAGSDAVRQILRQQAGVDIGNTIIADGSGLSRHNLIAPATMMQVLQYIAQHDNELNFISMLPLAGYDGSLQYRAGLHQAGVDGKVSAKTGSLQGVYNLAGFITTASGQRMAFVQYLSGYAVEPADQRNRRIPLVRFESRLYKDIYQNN

B1: NlpI, soluble version lacking its membrane anchor (natural protein, Escherichia coli)
chain: SNTSWRKSEVLAVPLQPTLQQEVILARMEQILASRALTDDERAQLLYERGVLYDSLGLRALARNDFSQALAIRPDMPEVFNYLGIYLTQAGNFDAAYEAFDSVLELDPTYNYAHLNRGIALYYGGRDKLAQDDLLAFYQDDPNDPFRSLWLYLAEQKLDEKQAKEVLKQHFEKSDKEQWGWNIVEFYLGNISEQTLMERLKADATDNTSLAEHLSETNFYLGKYYLSLGDLDSATALFKLAVANNVHNFVEHRYALLELSLLGQDQDDLAESDQQ
modifications: where used as fl-NlpI in MST: NT647 RED-NHS dye on amines
notes: Outer membrane lipoprotein NlpI of E. coli, soluble version lacking its membrane anchor; Homodimer by AUC; also called fl-NlpI (fluorescently labelled); His-NlpI; source: E. coli BL21 (λDE3), purified (HisTrap HP, Superdex 200)
- stoichiometry N [1]: 2
- binding result (PBP7, purified): binds
- Kd (MepM): 152 nM
- Kd (PBP4, native, purified): 177 nM
- Kd [2]: 126 nM
